In publication doi:10.1101/2022.05.07.491048:
Like-named read-outs stand apart in the source and are kept apart here.

What was measured:
b-His6-BAK_(16-186) [1] = target: b-His6-BAK_(16-186) (UniProt Q16611)
b-His6-BAK_(16-186) [2] = target: b-His6-BAK_(16-186) (UniProt Q16611); assay: fluorescence polarisation
b-His6-BAK_(16-186) [3] = target: b-His6-BAK_(16-186) (UniProt Q16611); assay: BLI

Sequence of UniProt Q16611 (Q16611 16-186): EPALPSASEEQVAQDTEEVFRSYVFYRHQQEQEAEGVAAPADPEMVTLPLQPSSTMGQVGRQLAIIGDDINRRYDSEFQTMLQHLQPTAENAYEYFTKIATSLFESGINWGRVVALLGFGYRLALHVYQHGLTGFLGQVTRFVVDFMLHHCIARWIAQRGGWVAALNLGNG

Substance	Kd (b-His6-BAK_(16-186) [1]) [µM]	Kd (b-His6-BAK_(16-186) [2]) [µM]	koff (b-His6-BAK_(16-186) [3]) [s⁻¹]
BNIP5 BH3 peptide, 5-FAM labelled	0.424	0.4	
CASP3 BH3 peptide, 5-FAM labelled		> 20	
His6-SUMO-BNIP5 BH3 (peptide)			0.16
NBEAL2 BH3 peptide, 5-FAM labelled		> 20	
PXT1 BH3 peptide, 5-FAM labelled		11	
SLC19A1 BH3 peptide, 5-FAM labelled		> 20	
SPNS1 BH3 peptide, 5-FAM labelled		> 20	
TERT BH3 peptide, 5-FAM labelled		> 20	
TRIM58 BH3 peptide, 5-FAM labelled		> 20	
TRPM7 BH3 peptide, 5-FAM labelled		> 20	
